Measurements: patent US6291645

Molecular target: GST.119-224 (glutathione S-transferase fusion protein of the SH2 domain, residues 119-224, of p56^lck) (not provided)
Assay: competition of peptide with p62 in the GST.119-224 pull-down from HeLa lysate

Substance | concentration that competed away p62 binding
pY505 phosphotyrosyl peptide (derived from the C-terminal negative regulatory region of p56^lck) | 15 mM
pY324 phosphotyrosyl peptide (derived from polyoma middle T antigen) | 1 mM
